In article PMC10312132:
Like-named read-outs stand apart in the source and are kept apart here.

Legend:
Assay in all cases: EMSA
RAD52 full-length [1] = molecular target: T1, RAD52 full-length (Homo sapiens, UniProt P43351 1-418)
T1 sequence: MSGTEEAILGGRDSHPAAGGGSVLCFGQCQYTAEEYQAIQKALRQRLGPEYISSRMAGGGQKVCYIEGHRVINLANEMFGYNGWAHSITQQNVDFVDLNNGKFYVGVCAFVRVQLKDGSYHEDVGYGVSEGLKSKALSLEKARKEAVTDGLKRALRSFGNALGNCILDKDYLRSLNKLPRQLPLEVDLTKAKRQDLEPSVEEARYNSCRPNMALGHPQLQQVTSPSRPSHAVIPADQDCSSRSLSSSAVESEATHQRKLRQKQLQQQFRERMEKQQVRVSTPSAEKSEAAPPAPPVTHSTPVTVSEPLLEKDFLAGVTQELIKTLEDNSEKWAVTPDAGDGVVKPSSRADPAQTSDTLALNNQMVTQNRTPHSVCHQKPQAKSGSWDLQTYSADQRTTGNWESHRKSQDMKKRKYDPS

RAD52 full-length [2] = molecular target: T1, RAD52 full-length; remark: listed apart in the source
RAD52 full-length [3] = molecular target: T1, RAD52 full-length; remark: listed apart in the source
RAD52 full-length [4] = molecular target: T1, RAD52 full-length; remark: listed apart in the source

Question: Does AAUACCGCAUCAGGAAAUUGUAAGCGUUAAUAUUUUGUUA (ssRNA) [CA#1 40-mer ssRNA] bind (RAD52 full-length [1])?
Answer: binds

Question: Does ACAGCACCAGATTCAGCAATTAAGCTCTAAGCCATCCGCA (ssDNA) [ISE#1 40-mer ssDNA] bind (RAD52 full-length [2])?
Answer: binds

Question: Does UGCGGAUGGCUUAGAGCUUAAUUGCUGAAUCUGGUGCUGU (ssRNA) [ISE#3 40-mer ssRNA] bind (RAD52 full-length [3])?
Answer: binds

Question: Does TGCGGATGGCTTAGAGCTTAATTGCTGAATCTGGTGCTGT (ssDNA) [ISE#4 40-mer ssDNA] bind (RAD52 full-length [4])?
Answer: binds
